Assay results: patent US20020098527A1 (Kyowa Kirin, published 2002)
Each block holds one binder with its values, some of them ahead of it.

How the values were obtained:
[1] = molecular target: T1, hCCR4 partial peptide (Compound 1) (human, conjugated with thyroglobulin (THY) using SMCC as the crosslinking agent); experiment: ELISA on plate-coated hCCR4 partial peptide conjugate
T1 construct: Synthetic peptide, coated on ELISA plates as a THY conjugate
T1 peptide: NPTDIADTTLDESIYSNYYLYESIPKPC

[2] = molecular target: T2, human CC chemokine receptor 4 (human CCR4) (human, UniProt P51679 1-360); experiment: flow cytometry (immunofluorescent method) on hCCR4-high-expressing EL-4 cells
T2 construct: Expressed on mouse EL-4 cells transfected with hCCR4 DNA (CCR4/EL-4); also called hCCR4; K5-5
T2 sequence: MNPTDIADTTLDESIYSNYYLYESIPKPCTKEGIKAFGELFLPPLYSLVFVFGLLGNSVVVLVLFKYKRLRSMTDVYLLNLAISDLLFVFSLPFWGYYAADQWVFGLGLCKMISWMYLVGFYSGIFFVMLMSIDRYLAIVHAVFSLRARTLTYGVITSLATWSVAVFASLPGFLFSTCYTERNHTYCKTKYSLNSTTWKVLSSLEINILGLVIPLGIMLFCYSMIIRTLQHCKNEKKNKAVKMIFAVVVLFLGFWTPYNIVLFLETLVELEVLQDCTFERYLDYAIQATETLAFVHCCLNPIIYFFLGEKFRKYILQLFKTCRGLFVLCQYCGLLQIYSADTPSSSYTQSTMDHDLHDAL
Experimental: They were selected by an immunofluorescent method using KM2160 prepared in Example 1(5). Into a 96 well U shape plate, 2×10⁵ cells of each of selected several tens of the gene-introduced clones was dispensed. KM2160 labeled with biotin by a known method (Enzyme Antibody Method, published by Gakusai Kikaku) was diluted to 5 μg/ml with a buffer for FACS (1% BSA-PBS, 0.02% EDTA, 0.05% NaN₃, pH 7.4), human IgG (manufactured by Welfide) was diluted to 3.75 mg/ml to prevent nonspecific staining, each of the thus diluted antibody solution was dispensed at 200 μl/well, and the mixture was allowed to react in ice for 30 minutes. As a negative control, biotinylated anti-IL-5R antibody (WO 97/10354) was used at the same concentration. After washing twice with 200 μl/well of the buffer, streptoavidin-PE (manufactured by Becton Dickinson Japan) was dispensed at 20 μl/well. Thirty minutes after the reaction in ice in the dark, the cells were washed three times with 200 μl/well and finally suspended to 500 μl, and the fluorescence intensity was measured by a flow cytometer to select one cell line having the highest fluorescence intensity.
Reactivity of the purified anti-CCR4 chimeric antibody KM2760 with the hCCR4-high-expressing cell (hereinafter referred to as “CCR4/EL-4”) produced in 3(4) of Example 2 was measured in the same manner as in 3(4) of Example 2.

[3] = molecular target: T1, hCCR4 partial peptide (Compound 1); experiment: ELISA, THY-peptide conjugate coated at 10 µg/ml, antibody concentration varied
Experimental: (§1) The conjugate prepared in the above manner was dispensed at 10 μg/ml and 50 μl/well into a 96 well plate for EIA (manufactured by Greiner) and adhered thereto by incubating it at 4° C. overnight. After washing with PBS, 1% BSA-containing PBS (hereinafter referred to as “1% BSA-PBS”) was added at 100 μl/well, and the mixture was allowed to react at room temperature for 1 hour to block the remaining active groups. After removing 1% BSA-PBS, diluted solutions of a transformant culture supernatant, a purified mouse antibody or a purified human chimeric antibody was dispensed at 50 μl/well, and the mixture was allowed to react at room temperature for 1 hour. […] After the reaction, each well was washed with Tween-PBS, ABTS solution (a solution prepared by dissolving 0.55 g of 2,2′-azino-bis(3-ethylbenzothiazoline-6-sulfonic acid)ammonium in 1 liter of 0.1 M citrate buffer (pH 4.2), and adding 1 μl/ml of hydrogen peroxide just before use) was dispensed at 50 μl/well for color developing, and the absorbance at 415 nm (hereinafter referred to as “OD₄₁₅”) was measured.
(§2) Reactivity of the purified anti-CCR4 chimeric antibody KM2760 to human CCR4 and mouse CCR4 was measured by ELISA shown in 2(3) of Example 2. […]

[4] = molecular target: T3, mCCR4 partial peptide (Compound 2) (mouse, conjugated with thyroglobulin (THY) using SMCC as the crosslinking agent); experiment: as above
T3 construct: Synthetic peptide, coated on ELISA plates as a THY conjugate
T3 peptide: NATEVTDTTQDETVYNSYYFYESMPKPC
Experimental: as §1, §2

binding result [1]: binds
B1: mouse anti-CCR4 monoclonal antibody KM2160 (antibody, mouse IgG1, V domains shown)
VH: EVQLVESGGDLMKPGGSLKISCAASGFIFSNYGMSWVRQTPDMRLEWVATISSASTYSYYPDSVKGRFTISRDNAENSLYLQMNSLRSEDTGIYYCGRHSDGNFAFGYWGRGTLVTVSA
VL: DVLMTQTPLSLPVSLGDQASISCRSSRNIVHINGDTYLEWYLQRPGQSPKLLIYKVSNRFSGVPDRFSGSGSGTDFTLKISRVEAEDLGVYYCFQGSLLPWTFGGGTRLEIRR
notes: Mouse IgG1 class with a kappa L chain, produced by hybridoma KM2160; also called anti-CCR4 mouse antibody KM2160

binding result [2]: binds
binding result [3]: binds
binding result [4]: binds
B2: anti-CCR4 chimeric antibody KM2760 (antibody, V domains shown)
VH: B1 VH
VL: B1 VL
notes: Human chimeric antibody: CH is human IgG1 subclass and CL is human kappa class (vector pKANTEX93); It was expressed in rat YB2/0 cells; It was used biotinylated in the flow cytometry assays
